Biological target: T1, CCR5 on CD4+ T cells of a Mauritian cynomolgus macaque (Mauritian cynomolgus macaque, UniProt P61814 1-352)
T1 construct: also called cynomolgus macaque CCR5
Experiment: in vivo CCR5 receptor occupancy on CD4+ T cells after AAV9-huLeron, flow cytometry; also near full CCR5 RO in mesenteric lymph nodes and spleen
Experimental: The ability of the leronlimab-delivering AAV to transduce myocytes, trigger them to produce leronlimab, and subsequently contain CCR5-tropic retroviral replication was tested. An AAV9 encoding human Fc leronlimab (AAV9-huLeron) was administered at 2×10¹² AAV genomes/kg of to a Mauritian cynomolgus macaque (MCM) chronically infected with the CCR5-tropic virus SHIVSF162P3. […] Leronlimab was detectable in plasma at week 3 after administration of leronlimab-AAV following achievement of full CCR5 receptor occupancy in peripheral blood (FIGS. 2A and 2C). Leronlimab persisted in the plasma for one year post leronlimab-AAV administration (FIG. 2A) without appearance of any ADA (FIG. 2B). Following leronlimab-AAV administration and full CCR5 RO on peripheral blood CD4+ T cells, plasma viral loads fell to undetectable levels. Plasma viremia “blips” that coincided with transient dips in CCR5 RO and plasma leronlimab levels were observed. Finally, CD4+ T cells from mesenteric lymph nodes (LN) and spleen maintained near full CCR5 RO (FIG. 2D). Cell-associated SHIV DNA (FIG. 2E) and RNA (FIG. 2F) decreased in blood and spleen, with minimal decreases in mesenteric LN.

B1: human Fc leronlimab (expressed in vivo from AAV9-huLeron) (antibody, V domains shown)
VH: EVQLVESGGGLVKPGGSLRLSCAASGYTFSNYWIGWVRQAPGKGLEWIGDIYPGGNYIRNNEKFKDKTTLSADTSKNTAYLQMNSLKTEDTAVYYCGSSFGSNYVFAWFTYWGQGTLVTVSS
VL: DIVMTQSPLSLPVTPGEPASISCRSSQRLLSSYGHTYLHWYLQKPGQSPQLLIYEVSNRFSGVPDRFSGSGSGTDFTLKISRVEAEDVGVYYCSQSTHVPLTFGQGTKVEIK
notes: also called PRO 140; PRO140
B1: binds.

Source: US20240392014A1 (OREGON HEALTH AND SCIENCE UNIVERSITY, published 2024)
